This passage reports Ki results from article PMC5464773 (2017).

Bounds are passed on as bounds.

The target of one assay is T1, Myc-tagged Bfl-1 (human, UniProt Q16548 1-175).
T1 chain: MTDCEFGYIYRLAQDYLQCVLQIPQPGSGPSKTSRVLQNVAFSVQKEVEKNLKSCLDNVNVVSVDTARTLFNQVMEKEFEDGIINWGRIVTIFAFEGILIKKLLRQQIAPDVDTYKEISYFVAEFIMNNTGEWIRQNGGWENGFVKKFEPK
The experiment in a line: FP.
For orientation: Ki means the dissociation constant of the complex between target and ligand, obtained from inhibition or displacement. The low end stands for tighter binding, the high end for weaker binding. Turning to Ac-QWVREIAAQLRRMADDLNAQYER-NH2 [PUMA/FS2 chimeric peptide with the larger residues of FS2 at positions 2a and 2e], the Ki turned out to be 2.1 nM.

Ac-QWAREIGAGLRRAADDVNAQVER-NH2 [PUMA/FS2 chimeric peptide with the smaller residues of FS2 at positions 2g, 3d, 4a and 4e] had an inhibitory constant (Ki) of 600 nM.

Another assay concerns the target T1, Myc-tagged Bfl-1. Description: FP. The source holds these as a separate data set.
In turn, Ac-QWIREIAAGLRRFADILNAQVER-NH2 (designed binder) [FS3] returned a Ki of 2.1 nM.

In the case of Ac-QWVREIAAGLRRAADDVNAQVER-NH2 (designed binder) [FS2], affinity was put at a Ki of 21 nM.

Ac-QWAREIGAQLRRMADDLNAQYER-NH2 [PUMA BH3 peptide (23 residues)] yielded an inhibition constant Ki of 4.8 nM.

The target in another assay is Myc-tagged Bcl-2 (human, UniProt P10415 1-239). Description: FP.
Chain of Myc-tagged Bcl-2 (P10415 1-211): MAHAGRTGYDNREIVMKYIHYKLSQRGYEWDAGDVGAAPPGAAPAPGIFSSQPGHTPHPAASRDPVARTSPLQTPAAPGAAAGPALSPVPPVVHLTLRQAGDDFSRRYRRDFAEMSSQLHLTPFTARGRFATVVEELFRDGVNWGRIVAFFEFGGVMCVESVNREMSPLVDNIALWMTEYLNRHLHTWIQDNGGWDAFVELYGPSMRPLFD
As to Ac-QWIREIAAGLRRFADILNAQVER-NH2 (designed binder) [FS3], the Ki amounted to 2000 nM. This lies in the single-digit micromolar range.

Ac-QWVREIAAGLRRAADDVNAQVER-NH2 (designed binder) [FS2] gave a Ki of 2400 nM.

For Ac-QWVREIAAGLRLAADNVNAQLER-NH2 (designed binder) [FS1], the inhibition constant Ki was over 5000 nM.

Another assay deals with T2, Myc-tagged Mcl-1 (human, UniProt Q07820 1-350).
T2 chain: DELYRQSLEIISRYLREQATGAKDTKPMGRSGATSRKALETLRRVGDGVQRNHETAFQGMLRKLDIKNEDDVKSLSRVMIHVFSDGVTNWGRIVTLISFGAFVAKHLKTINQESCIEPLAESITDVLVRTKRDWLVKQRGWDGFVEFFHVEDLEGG
The experiment in a line: FP.
On to Ac-QWIREIAAGLRRFADILNAQVER-NH2 (designed binder) [FS3], for which the Ki was 550 nM.

The molecule Ac-QWVREIAAGLRRAADDVNAQVER-NH2 (designed binder) [FS2] came in with a Ki of 3200 nM.

Take Ac-QWVREIAAGLRLAADNVNAQLER-NH2 (designed binder) [FS1]: the Ki is over 5000 nM.

For Ac-QWAREIGAQLRRMADDLNAQYER-NH2 [PUMA BH3 peptide (23 residues)], the affinity, expressed as Ki, was 2.4 nM.

In another assay the target is Myc-tagged Bcl-xL (human, UniProt Q07817-1 1-233). Description: FP.
Chain of Myc-tagged Bcl-xL (Q07817 1-209): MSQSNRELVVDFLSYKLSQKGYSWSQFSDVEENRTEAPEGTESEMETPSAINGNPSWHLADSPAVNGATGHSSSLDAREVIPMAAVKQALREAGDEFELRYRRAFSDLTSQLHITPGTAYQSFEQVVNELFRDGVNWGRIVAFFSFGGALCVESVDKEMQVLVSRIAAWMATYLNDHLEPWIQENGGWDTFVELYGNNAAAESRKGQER
Consider Ac-QWIREIAAGLRRFADILNAQVER-NH2 (designed binder) [FS3], for which affinity was put at a Ki of 320 nM.

Consider Ac-QWVREIAAGLRRAADDVNAQVER-NH2 (designed binder) [FS2], for which the Ki was over 5000 nM.

On to Ac-QWVREIAAGLRLAADNVNAQLER-NH2 (designed binder) [FS1], for which the affinity, expressed as Ki, was 2400 nM.

In the next assay the target is T3, Myc-tagged Bcl-w (human, UniProt Q92843 1-193).
T3 chain: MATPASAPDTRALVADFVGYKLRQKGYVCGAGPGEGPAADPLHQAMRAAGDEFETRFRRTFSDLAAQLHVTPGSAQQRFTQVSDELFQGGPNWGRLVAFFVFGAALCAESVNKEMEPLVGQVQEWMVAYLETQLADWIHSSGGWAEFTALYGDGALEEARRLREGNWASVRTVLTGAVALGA
The experiment in a line: FP.
In turn, Ac-QWIREIAAGLRRFADILNAQVER-NH2 (designed binder) [FS3] gave a Ki of 770 nM. This counts as sub-micromolar.

Molecule Ac-QWVREIAAGLRRAADDVNAQVER-NH2 (designed binder) [FS2] had a Ki of over 5000 nM.

In turn, Ac-QWVREIAAGLRLAADNVNAQLER-NH2 (designed binder) [FS1] gave a Ki of over 5000 nM.

As for Ac-QWAREIGAQLRRMADDLNAQYER-NH2 [PUMA BH3 peptide (23 residues)], the Ki was found to be 3 nM.
